Reference: article doi:10.1101/2025.01.30.635686 (bioRxiv, 2025)
Numbering of substitutions follows the chain as printed. Names and notes keep the numbering of the source. Where two headings read alike, the source gives them in different places.

B1: ^hexYME1L (hex-tag, 10-residue linker and the catalytic domain of human YME1L, residues 317-773) (other, homo sapiens)
chain: GELKAIAQELKAIAKELKAIAWELKAIAQGAGGSGSYFQSNARFRTTTGLDSAVDPVQMKNVTFEHVKGVEEAKQELQEVVEFLKNPQKFTILGGKLPKGILLVGPPGTGKTLLARAVAGEADVPFYYASGSEFDEMFVGVGASRIRNLFREAKANAPCVIFIDELDSVGGKRIESPMHPYSRQTINQLLAEMDGFKPNEGVIIIGATNFPEALDNALIRPGRFDMQVTVPRPDVKGRTEILKWYLNKIKFDQSVDPEIIARGTVGFSGAELENLVNQAALKAAVDGKEMVTMKELEFSKDKILMGPERRSVEIDNKNKTITAYHESGHAIIAYYTKDAMPINKATIMPRGPTLGHVSLLPENDRWNETRAQLLAQMDVSMGGRVAEELIFGTDHITTGASSDFDNATKIAKRMVTKFGMSEKLGVMTYSDTGKLSPETQSAIEQEIRILLRDSYERAKHILKTHAKEHKNLAEALLTYETLDAKEIQIVLEGKKLEVR
B2: ^hexYME1L_(E439A) M452C (other, homo sapiens)
chain: B1 chain with E165A, M178C
B3: ^hexYME1L_(E439A) M500C (other, homo sapiens)
chain: B1 chain with E165A, M226C
B4: ^hexYME1L_(E439A) M701C (other, homo sapiens)
chain: B1 chain with E165A, M427C

What was measured:
[1] = molecular target: the molecule itself; assay: SEC
[2] = molecular target: the molecule itself

| Protein | stoichiometry N [1] | stoichiometry N [2] |
| --- | --- | --- |
| B1 | 6 |  |
| B2 |  | 6 |
| B3 |  | 6 |
| B4 |  | 6 |
